Measurements published in the domain aggregation screens of Martell et al. (2025).

Experiment: soluble fraction after stress (log2 fold change); higher = more stays soluble; pooled small domains, quantitative proteomics
Conditions: stress: pH 4
Outline: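 Aggregation propensity is estimated from the fold change in each domain's soluble amount after acid stress. Pooled small-domain libraries were stressed at pH 4, and higher log2 values mean more stayed soluble.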

Going from “HMNRNHVFDSNGPDLRLRGTAQQLFEKYLQLGRDATSGGDRVMAEGYFQHAEHYFRILNAMNQAAMQH” to “HMTIFGWQQDETGKWYRNADGTFYENGWKEIDGAQYYFDENGYVTTGWLELDGKDYYFDEEGKYDSTKVR”, the “soluble fraction (log2)” value falls from -0.0835 to -1.25.

Going from “HMAEVTLTVREQEVLHLLARGMSNGEMAAHLYVEPTTIKYHLTGLLQKTGSRDRLQAVLWGIRAGMVH” to “HMDEPVDRLSPREQEVLALMAEGRSNAAIAHRLSITEKAVAKHINSIFTKLDLPLDEDDHRRVRAVLAWLR”, the “soluble fraction (log2)” value rises from -1.15 to -0.464.

First: HMEMNDFETLRDMYLTGKIWNVGDIVEANGVRGKVIRKGTNYLSFVDEDNKVHKAWLYDIEE
Second: HMSSHSAEAVRHRIKSMIDHEARDGDVLSDDRIVELLNQAGIDIARRTVAKYREALRIPSSVERKRRLKA
The “soluble fraction (log2)” value of the first is lower: -0.429 for the first, 0.0173 for the second.

“HMVIQRQIPPLVTRMLDGLEQFIQLDMPFDLDTRLGNIEAVRANMDRSDVTSAEAYRQVLELYSIELQ” and “HMRDLLPHFQRELQFLQTHRNEFAAAYPELGGRLATASDLLDDPHVERMVQSFALLAARVHKRLDDDF” are within 0.2 log units of each other in “soluble fraction (log2)” value: -0.0525 for the first, -0.143 for the second.

First: HMQENVIIYPNPTKSVIYLSEKVEFILYNILGEIIFIGDNNKIDLNSFDNGVYIFESGNVRTQIIK
Second: HMTPLILTAQEGGERLDAFVASQVEDLTRSAAQRLLEQGAVTSGGKPLKKNAKTTPGMVVEVLLPDPQ
The “soluble fraction (log2)” value of the first is higher: 0.204 for the first, -0.0145 for the second.

First: HMSTVTGLINYLSSGLIKGVGEATARKLVDHFGLDVLDIIQFNPQRLLEVDGIGEARAEMIASSFSEQK
Second: HMRIQLNFSDQLLDDVMSEALKHIDRKSQEHHIEKQMDDEFMLVYIDARLIIQVIVNIINNAIKY
The “soluble fraction (log2)” value of the first is lower: -1.48 for the first, -0.912 for the second.

“HMRMTLKNKVEDIVHILRKDKQTSLSAILGDNTDRIQTIVVFLAILELVKQHLIKTDQNANFGDINLFPED” and “HMAAESWTEKSRALAAAGLVVMGRDAQTKIEELTNLAPLIEAANASNTRLLTSQSIDELLSIVPTEENL” are within 0.2 log units of each other in “soluble fraction (log2)” value: 0.134 for the first, -0.0379 for the second.

Going from “HMSKSIEEIYDEAIRSLANEEYDSAKKLFSYLIDNFSDPEKLPLSLFWLGEIEFSSSNFDQSKIHYIE” to “HMLKLPVEYLNLKYQLMHATSLDKPNNLMKLDEKLGKIIDVYYDDLPVDEQRVVDILQSKLYSY”, the “soluble fraction (log2)” value falls from -1 to -1.72.

Going from “HMNVVGAKGRIIKISSSEEKMAVAEIEGHGEWNIRTNSEIELFVGKSVEVIEMKGNYLLVNQI” to “HMPSTVSVPDVAGSSLSEAKTTIKSSGLKVGTVHKVSSDTVESGYVIKTSPTAGSSKKEGSSIDIYVSKG”, the “soluble fraction (log2)” value rises from -1.81 to -0.026.

“HMNDEQFAIAKNDLLLSLYDGKEVNNSAAEYIIAWESLEKSPSDYISSQLKNTAESIIKISFD” and “HMGGTAGKINAIGVNFRTGPSTSYTSLGLLGKDTAVTVIGTSGKWYKVTIVSTGKTGYVYATYVNLTP” are within 0.2 log units of each other in “soluble fraction (log2)” value: 0.0518 for the first, -0.102 for the second.

Compared with “HMDVLKMKVEDLNIGSRTVNSLTAAKIKTVAGLIKKSKESLLELDGMGNKGVEEIILALKKLGLEL”, “HMYKNAFITYDNNLYYLGSDSKMAIGWQSIGGNTYYFRNWGGMITGKQVIDGKTYVFDEDGKLVQSPD” is lower in “soluble fraction (log2)” value: 0.345 for the first, -0.807 for the second.

Going from “HMGVEALTPRQREVLALMAQGRSNGWIAAELGLSEKAIVQHTSNIYDMLGLAVDADDHRRVLAVIHYLT” to “HMTMNLIEIGHVVGARRAELGLTQAQLAHLSGLSRQTVVGLEKGTLSDLGVNRVGQVMAVLGLDS”, the “soluble fraction (log2)” value rises from -0.943 to -0.242.

Going from “HMEYREFEAMTIRAIATLPPTQGHVIMLSRFEGLDNKEIALRLNLSLQTVKNTLTQGLKELKNKMRKLP” to “HMQMTKSEFLDALRRALNGNMAAASVDDNIRFYDSYFYTEETKGRSEAEILSELGDPRILARTLIDAAD”, the “soluble fraction (log2)” value falls from -0.119 to -0.382.

Compared with “HMDNQYGVYSDEKNNVEIHWKRIDHPSVAKDHLDIEAYQNGKRVDINNQQADHYRYLINQEMNE”, “HMETFNMTQKEITRLRVINQAIDKVITIREAAELLGLSERQVIRLKGGVEKFGPAFIIHKNRGRKP” is lower in “soluble fraction (log2)” value: 0.226 for the first, -0.265 for the second.

First: HMESIGANIRRLRKERNMSQDELARKAFTNRSNINRYESGKMVPSADTTEKIEEALGVPAGTLAQ
Second: HMAVTGRVDLRIKPWGYVSVDGAAKVSSPPTMQLKLAPGRHEIEITNPAGAAVTKTVDVIAGKSVTVQHN
The “soluble fraction (log2)” value of the first is lower: -0.638 for the first, 0.19 for the second.

Compared with “HMNPESRRSELIDAATKLFFSRGYTATSIRDILDAVDDRTASPSVFYYYFESKEAIYQAVLQRYTD”, “HMKYSQAMIAQIIKHFHLPNNTVVTGEDVDAILLRSVDGGDGIYGGDVVSIWKYYKKQNDIQEIVT” is higher in “soluble fraction (log2)” value: -1.34 for the first, -0.764 for the second.

First: HMNSNIIKTINDELSIRKGKYGPYIMYKTKKMKRPKFKSIGDNTPDEFLADKGSISEIILWIN
Second: HMLLSYDIAEYIEKYIHEHGLQPGDRLPTERELAAQLDITRVSVRQGYKRLLDQGVIRSENGYYVNPPR
The “soluble fraction (log2)” value of the first is lower: -0.452 for the first, 0.0914 for the second.

“HMRVVGRNHYDDADLAHIRSVIQLEARPLNVSRIARTLANEYPKHTYWSYLSFLQKNLRDRPDLF” and “HMFHFELNAAKQALEDRKTIDRAKGILMRQRGMSEDDAYKLLRTTAMSQNRKVIDVAQALVTAADLL” are within 0.2 log units of each other in “soluble fraction (log2)” value: 0.419 for the first, 0.292 for the second.

Compared with “HMNEIESFSNTKNPFSLTFKTSKDSSYKVEASSNLKKWTTLSQIKGTGNPITFTESRRILFRKQYYRVTLS”, “HMNPSVSSDERILLQKALGILSAEQKQIVMLHAVAGIKHREIAKLLDMPIATVLSKYSRAVNKLRHAMEA” is lower in “soluble fraction (log2)” value: 0.102 for the first, -0.298 for the second.

Compared with “HMEHNDPEVERTMFQGLEALKLQLFEKAFGHFSLLIKLAPDYAEAWNKRATVLYLMGRFKESESDVMRTLE”, “HMAELNLPVRKIGGEDYYYRQVKKKETIYGISKELGITKEDIIKYNPSVASGLQRNQILYFPVKDFK” is higher in “soluble fraction (log2)” value: -0.0178 for the first, 0.322 for the second.

First: HMDDSVVFSLNAKGIRLTGAGKYGEAIALFDKAIAAKPGLSGLYFNRAEARRLSGDLPGARSDLEQALAI
Second: HMRYEESVTLGERLLNQSLVALKADNIDDALWERFLREEAGEKSRQEILSDIGLGKRLPVVVAKRLLAPS
The “soluble fraction (log2)” value of the first is higher: -0.113 for the first, -0.982 for the second.

Compared with “HMSQYELEDVEKQRLKFKNGDEKALWLLSDIYKDNSQSYEVRLAALRALSESRHPLIIFDIQSSVK”, “HMGEDPYQMLGLTRQASDEEVRLAWRKLMRENHPDSLASRGVPQEFVKRATEQVAQINAAWDRIKRERG” is higher in “soluble fraction (log2)” value: -0.898 for the first, -0.0212 for the second.

First: HMVAEPTYGRTTDVLNIRSGPSTDDERIGQLSRGAVVTILEEKDGWYRLQRGYISADYVTQISAEEASNS
Second: HMTKSEWLRESREHLGLSQTDLRNLLNTALNRSYDKSRISRWENSKENIPAEVVKQIESLIATR
The “soluble fraction (log2)” value of the first is lower: -0.546 for the first, 0.406 for the second.

First: HMTRDGMTKEAFDSLLEDIMNILLDNGLKATTMGSIAKSLKMSKRTLYEIFSSKSQMVEEAIIASHTKMM
Second: HMLIDSEILKKTNKITIFLIYAFFSEYLINKEKKKILIGEYIKLSKDFLTIEEVKYFNHLLDDISK
The “soluble fraction (log2)” value of the first is higher: -0.00738 for the first, -0.304 for the second.

Going from “HMLKASEVLPYVFTDKFFIDDLNLKQDQILGFLEYIDSKLPSQKLLQVSQQFQLIDFLINESKNYKNQ” to “HMLAHSEFGARLRETRKRLGLSQSELGGDRYSGSYISHLESGRRAASAEVIEFLAGRLGVEVEELGM”, the “soluble fraction (log2)” value falls from -0.252 to -1.2.

First: HMQLTDLSALEAIIKEVLAANPKSVEDYKSGKEKAFGSLVGQAMKATKGKANPETVNSLLRKNLN
Second: HMNTLPASVQPKKGRLYAVIQTKENGKSKPVWRSLGLPEGSNKSKVNKAFREVVKQFEEEYAERLAR
The “soluble fraction (log2)” value of the first is lower: -0.0162 for the first, 0.22 for the second.

“HMGGLAVQLVHAMTDQIRSGRLKAGDKLPTEAAIMKDFGVSRTVVREAISRLQASGWVDTRHGIGTFVLHQ” and “HMITEQEFQRVAAYVKNKAGINLNEKKVLVQGRLDSYMQRKGYSSYDEFMDRVERFPTGPEAEDLMNALTT” are within 0.2 log units of each other in “soluble fraction (log2)” value: 0.188 for the first, 0.0246 for the second.

“HMRDSWNEATKEKRYTEAYDALNSALKKTPATPHALSDALWIARELGRTNEEVQRLEWRLYALLTWIS” and “HMGIVAQLPTIRVNGKTLYYYDAQSGDNIYSIAEKLGVTVEDIRANNPGVADGVKPRMRLFFPTSLAK” are within 0.2 log units of each other in “soluble fraction (log2)” value: -0.0517 for the first, 0.0671 for the second.

“HMITEDQVIARIGLLSPAEKSLLKDKLERFRRLTLSEQQHLREFHSALDNHDKRTDLLNVLRKYNDWVNQL” and “HMQKTPFEIMTIYKDQILEMLGKDLTATEISIVLKKKGEKVHPREIRKFQLQHYEEVQDMRKKWRE” are within 0.2 log units of each other in “soluble fraction (log2)” value: -0.736 for the first, -0.632 for the second.

“HMDRRIDIANAVKTALGSLPERQKTAIVLVHYEGFSGAETAKLLGISVEAVESLLARARRNLRQTLGP” and “HMASALDFGRYVRSQYSLQEFPLILIAPLNDPHPKEVVRELFNLYLTKPITRSRLFDSLMTVLG” are within 0.2 log units of each other in “soluble fraction (log2)” value: -0.586 for the first, -0.499 for the second.

First: HMGGVIEDDRGQWAHPGEVTKINSNNITMKGVDFPVLGISDTGDKKMMQPGKDYKFDGNSVTEYPMA
Second: HMRSDSEIKEDVLDELMWQPNIDETQIGVIVEKGVVTLTGFVDAYAKKTAALDAVKNVKGVKAVANDIEV
The “soluble fraction (log2)” value of the first is lower: -0.5 for the first, -0.0968 for the second.

Compared with “HMPMINLYQRLNLPPTASRAEIEAALAQYRSELSTAEIRGVQEWLLVNEVRHRYDAKLRQEQPSFFI”, “HMRAPETEITYTEFKTALRAGQIETATVGIEQISGKLTDGDLYRTVRVDDPDLLKDLEANHVNAAGRV” is higher in “soluble fraction (log2)” value: -0.427 for the first, -0.0386 for the second.

Compared with “HMIANDDEIRKVVLEVIEEQPKAVEDVKNGRDRILDFLVGQVMKKTRGKANPSLASNLMKEEIEK”, “HMVFSKEELLFNSDSLLSLYPNDNKLLETILSEKIDHAVKNNDMSMYKEILVIDPKNPLANYHLLM” is higher in “soluble fraction (log2)” value: -0.11 for the first, 0.17 for the second.

First: HMDFDFHALGREIKRKRKDKGWTQEYLAQLLDRTPRSIMYMENRGQHPSLNILFKIATLLEISIDQFFF
Second: HMIKEYEVLNYVTYEYDEIKKKLEEDFGIIVLMKEAYSDETPAGIIMDQDVEQGRIFKEGATNTITFTVS
The “soluble fraction (log2)” value of the first is higher: 0.158 for the first, -1.2 for the second.

First: HMALTARDLGLTHRQADVLHLVLQGKPVKLIARDLGLAEGTVKSHVSAVLRALNVTTRTQAIVAAGRLGLM
Second: HMTKEAIAQKLRIARQESGLTQKDVSAKIGRPQQTIASWEVGRSQPDADTLYSLLLLYKVSPNTFFEYD
The “soluble fraction (log2)” value of the first is higher: ≥ 0.43 for the first, -0.237 for the second.

Going from “HMEDIAAIAQRIQGLRDIVGISVEEMAKALDISEQEYREYEKGETDFSFSFLYTVANVLGINITDLI” to “HMTSRIHDYWTSPGQPGYAKIGWGTAGDFRRAKALIGEKIAANSPEDMRYLNQIIAQWHFDALGYWPGDH”, the “soluble fraction (log2)” value rises from -1.56 to -1.08.

“HMLTRRQSEVLDFIRQFAESESMPPTLHEIAKGMGFSSDNAARDHVRALARKGAIDLVGGTSRGIRLR” and “HMAAELHPYGADSYRGDNPPAGYEIKAKEESKKFHTPSSPWYGRTIAEIWFRTEEAAEAAGFINAVK” are within 0.2 log units of each other in “soluble fraction (log2)” value: -0.331 for the first, -0.272 for the second.

For “HMDVFPDESLKAWLIEMGFKLDQKKMNVFTVLRRMLLQTAPSVKEFRILEIVLQQSRRKLKELNDLKKS”, the “soluble fraction (log2)” value was -0.36.
